The target of assay [1] is T1, RAD51 (UniProt Q08297 1-339, limits assumed).
T1 sequence (looked up): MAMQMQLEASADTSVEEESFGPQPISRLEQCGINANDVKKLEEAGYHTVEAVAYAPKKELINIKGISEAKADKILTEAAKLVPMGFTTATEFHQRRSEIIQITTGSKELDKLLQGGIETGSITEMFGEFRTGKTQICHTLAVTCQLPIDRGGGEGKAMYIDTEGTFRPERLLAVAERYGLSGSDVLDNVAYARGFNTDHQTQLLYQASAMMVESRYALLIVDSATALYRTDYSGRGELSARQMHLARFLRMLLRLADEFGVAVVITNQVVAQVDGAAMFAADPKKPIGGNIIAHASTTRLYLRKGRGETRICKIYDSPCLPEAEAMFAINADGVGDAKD
In words: cell-based or functional assay.

Assay [2] concerns the target T1, RAD51. In words: cell-based or functional assay. This is another data set of the same source.

The results in this text go back to patent US20110151448A1 (GENEPROTECH, published 2011).

Side chains are listed from the residue outwards. Ends that are not written are not given here. hairpin oligonucleotide = not defined here

B1: BRC3 bait peptide (mouse BRCA2 residues 1391-1458 with an added C-terminal cysteine), as attached to the targeting vector BRC3-HPRT-NLS (peptide)
peptide: ERNIKEFNISFQTASGKNTRVSKESLNKSVNIFNRETDELTVISDSLNSKILHGINKDKMHTSSHKKAC([sulfo‑SMCC-hairpin oligonucleotide])
modifications: reading uncertain; also: conjugated via oligonucleotide to HPRT targeting DNA
On to B1, for which the “increase in the relative recombination frequency compared to control (HP-HPRT)” value in the assay with RAD51 [1] stood at 1.5 fold. Further, in the assay with RAD51 [2], the “Fold increase of targeted recombination = ratio of control (HP-HPRT)/ratio of expt. vector (Exp 4, F9 cells)” value worked out at 2.2 fold and the “Fold increase of targeted recombination = ratio of control (HP-HPRT)/ratio of expt. vector (Exp 5, F9 cells)” value came out at 2.3 fold.

B2: BRC5 negative bait peptide (mouse BRCA2 BRC5 repeat with an added C-terminal cysteine), as attached to the targeting vector BRC5-HPRT-NLS (peptide)
peptide: SSYPVTEDSALAYYTEDSRKTCVRESSLSKGRKWLREQGDKLGTRNTIKIEC([sulfo‑SMCC-hairpin oligonucleotide])
modifications: reading uncertain; also: conjugated via oligonucleotide to HPRT targeting DNA
As to B2, in the assay with RAD51 [2], the “Fold increase of targeted recombination = ratio of control (HP-HPRT)/ratio of expt. vector (Exp 3, F9 cells)” value turned out to be 1.1 fold.

B3: RAD52 bait peptide (mouse RAD52 residues 294-344 with an added C-terminal cysteine), as attached to the targeting vector RAD52-HPRT-NLS (peptide)
peptide: VAAKHAAVLPAPPKHSTPVTAASELLQEKVVFPDNLEENLEMWDLTPDLEDC([sulfo‑SMCC-hairpin oligonucleotide])
modifications: reading uncertain; also: conjugated via oligonucleotide to HPRT targeting DNA
With B3, in the assay with RAD51 [1], the “increase in targeted homologous recombination relative to a conventional targeting vector (HPRT, ends not protected)” value came to 3.5 fold and the “increase of targeted recombination compared with the control vector (HP-HPRT)” value was 2.6 fold. In addition, in the assay with RAD51 [2], the “Fold increase of targeted recombination = ratio of control (HP-HPRT)/ratio of expt. vector (Exp 1, F9 cells)” value came out at 2 fold; the “Fold increase of targeted recombination = ratio of control (HP-HPRT)/ratio of expt. vector (Exp 2, F9 cells)” value turned out to be 2.2 fold; the “Fold increase of targeted recombination = ratio of control (HP-HPRT)/ratio of expt. vector (Exp 4, F9 cells)” value was 2.2 fold.
